PMC4239642, “trans-Acting Arginine Residues in the AAA+ Chaperone ClpB Allosterically Regulate the Activity through Inter- and Intradomain Communication*” (The Journal of Biological Chemistry, 2014)

Legend:
[1] = target: T1, ClpB NBD1-M M394C (Thermus thermophilus, UniProt Q9RA63 141-534, M394C); assay: cross-linking; intermolecular disulfide between two single-cysteine variants, 50 μM each, 50 μM copper phenanthroline, 2 mM ADP, 50 mM Tris/HCl pH 7.5, 50 mM KCl, 5 mM MgCl2, 1 h at 37 °C; dimer separated on Superdex 200 26/60, non-reducing SDS-PAGE; conditions: both partners purified
T1 construct: ClpB from Thermus thermophilus, NBD1 and M-domain, amino acids 141-534; source: E. coli BL21 (DE3) RIL, purified

[2] = target: the molecule itself; assay: SEC-MALS; Superdex 200 10/300 GL with multiangle static light scattering (SLS), buffer A (50 mM Tris/HCl pH 7.5, 50 mM KCl, 5 mM MgCl2, 2 mM EDTA); running buffer nucleotide-free or with 2 mM ADP or 2 mM ATP; 40 μl of 100 μM injected, about 2 μM at the detector; self-association induced by nucleotide
[3] = target: the molecule itself; assay: dynamic light scattering; 1–30 μM protein (monomeric units) in buffer A with 2 mM ATP and an ATP-regenerating system (phosphoenolpyruvate, pyruvate kinase); self-association
[4] = target: T2, full-length ClpB M394C (Thermus thermophilus, UniProt Q9RA63 1-854, M394C); assay: cross-linking; intermolecular disulfide between two single-cysteine variants, 50 μM each, 50 μM copper phenanthroline, 2 mM ADP, 50 mM Tris/HCl pH 7.5, 50 mM KCl, 5 mM MgCl2, 1 h at 37 °C; dimer separated on Superdex 200 26/60, non-reducing SDS-PAGE; conditions: both partners purified
T2 construct: ClpB from Thermus thermophilus, full-length protein; source: E. coli BL21 (DE3) RIL, purified

[5] = target: T3, ClpB NBD1-M A390C (Thermus thermophilus, UniProt Q9RA63 141-534, A390C); assay: as above; conditions: both partners purified
T3 construct: ClpB from Thermus thermophilus, NBD1 and M-domain, amino acids 141-534; source: E. coli BL21 (DE3) RIL, purified

Binder	stoichiometry N [3]	also measured
ClpB NBD1-M P221C (domain or fragment, Thermus thermophilus, UniProt Q9RA63 141-534, looked up, ClpB from Thermus thermophilus, NBD1 and M-domain, amino acids 141-534; source: E. coli BL21 (DE3) RIL, purified) VQTEHAESTYNALEQYGIDLTRLAAEGKLDPVIGRDEEIRRVIQILLRRTKNNPVLIGEPGVGKTAIVEGLAQRIVKGDVCEGLKGKRIVSLQMGSLLAGAKYRGEFEERLKAVIQEVVQSQGEVILFIDELHTVVGAGKAEGAVDAGNMLKPALARGELRLIGATTLDEYREIEKDPALERRFQPVYVDEPTVEETISILRGLKEKYEVHHGVRISDSAIIAAATLSHRYITERRLPDKAIDLIDEAAARLRMALESAPEEIDALERKKLQLEIEREALKKEKDPDSQERLKAIEAEIAKLTEEIAKLRAEWEREREILRKLREAQHRLDEVRREIELAERQYDLNRAAELRYGELPKLEAEVEALSEKLRGARFVRLEVTEEDIAEIVSRWT	–	binding result [1]: binds
cross-linked NBD1-M dimer wild-type (P221C/M394C disulfide) (complex, intermolecular disulfide bond between P221C of this chain and M394C of the other chain | intermolecular disulfide bond between M394C of this chain and P221C of the other chain, ClpB from Thermus thermophilus, NBD1 and M-domain, amino acids 141-534; also called cross-linked wild-type dimer; P221C/M394C dimer; source: E. coli BL21 (DE3) RIL, purified; the two cysteine variants oxidised with copper phenanthroline, dimer separated on Superdex 200) chain 1: VQTEHAESTYNALEQYGIDLTRLAAEGKLDPVIGRDEEIRRVIQILLRRTKNNPVLIGEPGVGKTAIVEGLAQRIVKGDVCEGLKGKRIVSLQMGSLLAGAKYRGEFEERLKAVIQEVVQSQGEVILFIDELHTVVGAGKAEGAVDAGNMLKPALARGELRLIGATTLDEYREIEKDPALERRFQPVYVDEPTVEETISILRGLKEKYEVHHGVRISDSAIIAAATLSHRYITERRLPDKAIDLIDEAAARLRMALESAPEEIDALERKKLQLEIEREALKKEKDPDSQERLKAIEAEIAKLTEEIAKLRAEWEREREILRKLREAQHRLDEVRREIELAERQYDLNRAAELRYGELPKLEAEVEALSEKLRGARFVRLEVTEEDIAEIVSRWT chain 2: not shown	–	stoichiometry N [2]: ~4 NBD1-M subunits (two cross-linked dimers)
ClpB NBD1-M R322A (domain or fragment, ClpB from Thermus thermophilus, NBD1 and M-domain, amino acids 141-534; also called single mutant R322A; source: E. coli BL21 (DE3) RIL, purified) not shown	2	–
full-length ClpB P221C (natural protein, Thermus thermophilus, UniProt Q9RA63 1-854, looked up, ClpB from Thermus thermophilus, full-length protein; source: E. coli BL21 (DE3) RIL, purified) MNLERWTQAAREALAQAQVLAQRMKHQAIDLPHLWAVLLKDERSLAWRLLEKAGADPKALKELQERELARLPKVEGAEVGQYLTSRLSGALNRAEALMEELKDRYVAVDTLVLALAEATPGLPGLEALKGALKELRGGRTVQTEHAESTYNALEQYGIDLTRLAAEGKLDPVIGRDEEIRRVIQILLRRTKNNPVLIGEPGVGKTAIVEGLAQRIVKGDVCEGLKGKRIVSLQMGSLLAGAKYRGEFEERLKAVIQEVVQSQGEVILFIDELHTVVGAGKAEGAVDAGNMLKPALARGELRLIGATTLDEYREIEKDPALERRFQPVYVDEPTVEETISILRGLKEKYEVHHGVRISDSAIIAAATLSHRYITERRLPDKAIDLIDEAAARLRMALESAPEEIDALERKKLQLEIEREALKKEKDPDSQERLKAIEAEIAKLTEEIAKLRAEWEREREILRKLREAQHRLDEVRREIELAERQYDLNRAAELRYGELPKLEAEVEALSEKLRGARFVRLEVTEEDIAEIVSRWTGIPVSKLLEGEREKLLRLEEELHKRVVGQDEAIRAVADAIRRARAGLKDPNRPIGSFLFLGPTGVGKTELAKTLAATLFDTEEAMIRIDMTEYMEKHAVSRLIGAPPGYVGYEEGGQLTEAVRRRPYSVILFDEIEKAHPDVFNILLQILDDGRLTDSHGRTVDFRNTVIILTSNLGSPLILEGLQKGWPYERIRDEVFKVLQQHFRPEFLNRLDEIVVFRPLTKEQIRQIVEIQLSYLRARLAEKRISLELTEAAKDFLAERGYDPVFGARPLRRVIQRELETPLAQKILAGEVKEGDRVQVDVGPAGLVFAVPARVEA	–	binding result [4]: binds
ClpB NBD1-M R322A/R323A (domain or fragment, ClpB from Thermus thermophilus, NBD1 and M-domain, amino acids 141-534; also called double mutant; source: E. coli BL21 (DE3) RIL, purified) not shown	2	–
ClpB NBD1-M R323A (domain or fragment, ClpB from Thermus thermophilus, NBD1 and M-domain, amino acids 141-534; also called single mutant R323A; source: E. coli BL21 (DE3) RIL, purified) not shown	2	–
ClpB NBD1-M wild type (domain or fragment, ClpB from Thermus thermophilus, NBD1 and M-domain, amino acids 141-534; also called unlinked NBD1-M wild type; ClpB construct comprising residues 141-534; source: E. coli BL21 (DE3) RIL, purified) not shown	3	–
ClpB NBD1-M Q184C (domain or fragment, ClpB from Thermus thermophilus, NBD1 and M-domain, amino acids 141-534; source: E. coli BL21 (DE3) RIL, purified) not shown	–	binding result [5]: binds
